# From patent US20240343809A1 (EXCELMAB, published 2024)
# T1: human B7-H3 antigen, recombinant extracellular domain (ECD) (29-461) (human, UniProt Q5ZPR3 29-461)
# T1 construct: range 29-461; Expressed in 293F cells as B7-H3-TEV-cFc-His fusion, cut with TEV protease and cleaned over a nickel column to give the human B7-H3 antigen; also called recombinant human B7-H3 antigen; hB7-H3
# T1 sequence (looked up): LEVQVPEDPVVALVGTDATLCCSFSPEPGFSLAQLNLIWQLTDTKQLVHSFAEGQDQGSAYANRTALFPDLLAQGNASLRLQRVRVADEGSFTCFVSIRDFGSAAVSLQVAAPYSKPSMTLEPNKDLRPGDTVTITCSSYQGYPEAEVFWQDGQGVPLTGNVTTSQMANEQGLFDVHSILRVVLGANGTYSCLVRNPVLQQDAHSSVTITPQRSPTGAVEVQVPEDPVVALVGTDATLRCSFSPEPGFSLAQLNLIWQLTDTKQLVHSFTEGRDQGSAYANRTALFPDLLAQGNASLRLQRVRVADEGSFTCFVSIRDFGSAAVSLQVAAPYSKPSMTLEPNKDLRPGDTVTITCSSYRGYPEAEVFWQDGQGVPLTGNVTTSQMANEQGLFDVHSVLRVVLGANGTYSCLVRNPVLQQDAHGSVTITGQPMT
# Tests used:
# [1] = target: T1, human B7-H3 antigen, recombinant …; assay: ELISA, coated human B7-H3 antigen
# Method: (§1) The binding activity of the 5D9 to B7-H3 antigen was analyzed by ELISA. Human B7-H3 antigens were coated on the 96-well plate and placed at 4° C. overnight. The antibody 5D9 and controls were diluted to 10 μg/mL, followed by 4-fold dilution gradients to generate a total of 8 different concentrations. The diluted samples and the wells coated antigen were incubated for 1h. After washing, HRP (horseradish peroxidase)-labeled goat anti-human IgG (H+L) secondary antibody was added to the plate and incubated for 1h. TMB (3,3′,5,5′-tetramethylbenzidine) solution was then added to each well after washing for chromogenesis. The absorbance was measured at OD₄₅₀ₙₘ with a microplate reader. Taking the logarithmic value of the sample concentration as the X-axis, and the absorbance OD₄₅₀ₙₘ value as the Y-axis, a dose-response curve was drawn to calculate the EC₅₀. The EC₅₀ represents the binding activity of the antibody to B7-H3 antigen. A negative control IgG group and a positive antibody Enoblituzumab control group were meanwhile set in the experiment.
# [2] = target: T1, human B7-H3 antigen, recombinant …; assay: ELISA, coated human B7-H3 antigen; remark: listed apart in the source
# Method: as §1
# ELISA was used to analyze the binding activity of affinity-matured variants to human B7-H3 antigen. By taking the logarithmic value of the sample concentration as the X-axis, and the absorbance OD₄₅₀ₙₘ value as the Y-axis, a dose-response curve was drawn to calculate the EC₅₀. The EC₅₀ represents the binding activity of the affinity-matured variants to B7-H3 antigen. A positive control Enoblituzumab and a negative control hIgG were set in the experiment.
binding result [1],EC50 [2],Binder
–,0.147 µg/mL,"affinity-matured B7-H3 antibody 46H9 (antibody, V domains shown, Full antibody expressed in 293F cells, protein A purified; VH assembled from the framework and CDR entries) VH: QVQLVQSGAEVKKPGSSVKVSCKASGGTFSNYAINWVRQAPGQGLEWMGGIIPLFGTANYAQKFQGRVTITADESTSTAYMELSSLRSDDTAVYYCARDREARESGVNFGMDVWGQGTTVTVSS VL: DIQMTQEPSLTTSPGGTVTLTCRSSTGAVTTSNYANWVQEKPGQAPRGLIGGTNKRAPGTPARFSGSLIGGKAALTITGVQPEDEAIYFCALWYSNLWVFGGGTKLEIK"
–,0.0247 µg/mL,"affinity-matured B7-H3 antibody 50A6 (antibody, V domains shown, Full antibody expressed in 293F cells, protein A purified; VH assembled from the framework and CDR entries) VH: QVQLVQSGAEVKKPGSSVKVSCKASGGTFSNYAINWVRQAPGQGLEWMGGIIPLFGTANYAQKFQGRVTITADESTSTAYMELSSLRSDDTAVYYCARDAVVPNSGVNFGMDVWGQGTTVTVSS VL: DIQMTQEPSLTTSPGGTVTLTCRSSTGAVTTSNYANWVQEKPGQAPRGLIGGTNKRAPGTPARFSGSLIGGKAALTITGVQPEDEAIYFCALWYSNLWVFGGGTKLEIK"
–,0.0339 µg/mL,"affinity-matured B7-H3 antibody 50A11 (antibody, V domains shown, Full antibody expressed in 293F cells, protein A purified; VH assembled from the framework and CDR entries) VH: QVQLVQSGAEVKKPGSSVKVSCKASGGTFSNYAINWVRQAPGQGLEWMGGIIPLFGTANYAQKFQGRVTITADESTSTAYMELSSLRSDDTAVYYCARDQVVPRSGVNFGMDVWGQGTTVTVSS VL: DIQMTQEPSLTTSPGGTVTLTCRSSTGAVTTSNYANWVQEKPGQAPRGLIGGTNKRAPGTPARFSGSLIGGKAALTITGVQPEDEAIYFCALWYSNLWVFGGGTKLEIK"
–,0.039 µg/mL,"affinity-matured B7-H3 antibody 46H7 (antibody, V domains shown, Full antibody expressed in 293F cells, protein A purified; VH assembled from the framework and CDR entries) VH: QVQLVQSGAEVKKPGSSVKVSCKASGGTFSNYAINWVRQAPGQGLEWMGGIIPLFGTANYAQKFQGRVTITADESTSTAYMELSSLRSDDTAVYYCARDRFTPRSGVNFGMDVWGQGTTVTVSS VL: DIQMTQEPSLTTSPGGTVTLTCRSSTGAVTTSNYANWVQEKPGQAPRGLIGGTNKRAPGTPARFSGSLIGGKAALTITGVQPEDEAIYFCALWYSNLWVFGGGTKLEIK"
–,0.0244 µg/mL,"affinity-matured B7-H3 antibody 47H4 (antibody, V domains shown, Full antibody expressed in 293F cells, protein A purified; VH assembled from the framework and CDR entries) VH: QVQLVQSGAEVKKPGSSVKVSCKASGGTFSNYAINWVRQAPGQGLEWMGGIIPLFGTANYAQKFQGRVTITADESTSTAYMELSSLRSDDTAVYYCARDFDAPGSGVNFGMDVWGQGTTVTVSS VL: DIQMTQEPSLTTSPGGTVTLTCRSSTGAVTTSNYANWVQEKPGQAPRGLIGGTNKRAPGTPARFSGSLIGGKAALTITGVQPEDEAIYFCALWYSNLWVFGGGTKLEIK"
–,0.0278 µg/mL,"affinity-matured B7-H3 antibody 50B10 (antibody, V domains shown, Full antibody expressed in 293F cells, protein A purified; VH assembled from the framework and CDR entries) VH: QVQLVQSGAEVKKPGSSVKVSCKASGGTFSNYAINWVRQAPGQGLEWMGGIIPLFGTANYAQKFQGRVTITADESTSTAYMELSSLRSDDTAVYYCARDVEVFNSGVNFGMDVWGQGTTVTVSS VL: DIQMTQEPSLTTSPGGTVTLTCRSSTGAVTTSNYANWVQEKPGQAPRGLIGGTNKRAPGTPARFSGSLIGGKAALTITGVQPEDEAIYFCALWYSNLWVFGGGTKLEIK"
–,0.0418 µg/mL,"affinity-matured B7-H3 antibody 50E3 (antibody, V domains shown, Full antibody expressed in 293F cells, protein A purified; VH assembled from the framework and CDR entries) VH: QVQLVQSGAEVKKPGSSVKVSCKASGGTFSNYAINWVRQAPGQGLEWMGGIIPLFGTANYAQKFQGRVTITADESTSTAYMELSSLRSDDTAVYYCARDVNNPGSGVNFGMDVWGQGTTVTVSS VL: DIQMTQEPSLTTSPGGTVTLTCRSSTGAVTTSNYANWVQEKPGQAPRGLIGGTNKRAPGTPARFSGSLIGGKAALTITGVQPEDEAIYFCALWYSNLWVFGGGTKLEIK"

# Second part, the binder before the results:
Binder,binding result [1],EC50 [2]
"B7-H3 antibody 5D9 (antibody, V domains shown, Expressed as full antibody (heavy and light chain) in 293F cells, protein A purified, detected with anti-human IgG) VH: QVQLVQSGAEVKKPGSSVKVSCKASGGTFSNYAINWVRQAPGQGLEWMGGIIPLFGTANYAQKFQGRVTITADESTSTAYMELSSLRSDDTAVYYCARDQVVATSGVNFGMDVWGQGTTVTVSS VL: DIQMTQEPSLTTSPGGTVTLTCRSSTGAVTTSNYANWVQEKPGQAPRGLIGGTNKRAPGTPARFSGSLIGGKAALTITGVQPEDEAIYFCALWYSNLWVFGGGTKLEIK",binds,–
"affinity-matured B7-H3 antibody 46D4 (antibody, V domains shown, Full antibody expressed in 293F cells, protein A purified; VH assembled from the framework and CDR entries) VH: QVQLVQSGAEVKKPGSSVKVSCKASGGTFSNYAINWVRQAPGQGLEWMGGIIPLFGTANYAQKFQGRVTITADESTSTAYMELSSLRSDDTAVYYCARDVVVPRSGVNFGMDVWGQGTTVTVSS VL: DIQMTQEPSLTTSPGGTVTLTCRSSTGAVTTSNYANWVQEKPGQAPRGLIGGTNKRAPGTPARFSGSLIGGKAALTITGVQPEDEAIYFCALWYSNLWVFGGGTKLEIK",–,0.0283 µg/mL
"affinity-matured B7-H3 antibody 43D4 (antibody, V domains shown, Full antibody expressed in 293F cells, protein A purified; VH assembled from the framework and CDR entries) VH: QVQLVQSGAEVKKPGSSVKVSCKASGGTSGVALINWVRQAPGQGLEWMGGIIPLFGTANYAQKFQGRVTITADESTSTAYMELSSLRSDDTAVYYCARDQVVATSGVNFGMDVWGQGTTVTVSS VL: DIQMTQEPSLTTSPGGTVTLTCRSSTGAVTTSNYANWVQEKPGQAPRGLIGGTNKRAPGTPARFSGSLIGGKAALTITGVQPEDEAIYFCALWYSNLWVFGGGTKLEIK",–,0.0303 µg/mL
"affinity-matured B7-H3 antibody 45F4 (antibody, V domains shown, Full antibody expressed in 293F cells, protein A purified; VH assembled from the framework and CDR entries) VH: QVQLVQSGAEVKKPGSSVKVSCKASGGTFSNYAINWVRQAPGQGLEWMGGIIPLFRSSNYAQKFQGRVTITADESTSTAYMELSSLRSDDTAVYYCARDQVVATSGVNFGMDVWGQGTTVTVSS VL: DIQMTQEPSLTTSPGGTVTLTCRSSTGAVTTSNYANWVQEKPGQAPRGLIGGTNKRAPGTPARFSGSLIGGKAALTITGVQPEDEAIYFCALWYSNLWVFGGGTKLEIK",–,0.0219 µg/mL
"affinity-matured B7-H3 antibody 43G11 (antibody, V domains shown, Full antibody expressed in 293F cells, protein A purified; VH assembled from the framework and CDR entries) VH: QVQLVQSGAEVKKPGSSVKVSCKASGGTLRPVLINWVRQAPGQGLEWMGGIIPLFGTANYAQKFQGRVTITADESTSTAYMELSSLRSDDTAVYYCARDQVVATSGVNFGMDVWGQGTTVTVSS VL: DIQMTQEPSLTTSPGGTVTLTCRSSTGAVTTSNYANWVQEKPGQAPRGLIGGTNKRAPGTPARFSGSLIGGKAALTITGVQPEDEAIYFCALWYSNLWVFGGGTKLEIK",–,0.0411 µg/mL
"affinity-matured B7-H3 antibody 45B11 (antibody, V domains shown, Full antibody expressed in 293F cells, protein A purified; VH assembled from the framework and CDR entries) VH: QVQLVQSGAEVKKPGSSVKVSCKASGGTFSNYAINWVRQAPGQGLEWMGGIIPMWQSVNYAQKFQGRVTITADESTSTAYMELSSLRSDDTAVYYCARDQVVATSGVNFGMDVWGQGTTVTVSS VL: DIQMTQEPSLTTSPGGTVTLTCRSSTGAVTTSNYANWVQEKPGQAPRGLIGGTNKRAPGTPARFSGSLIGGKAALTITGVQPEDEAIYFCALWYSNLWVFGGGTKLEIK",–,0.0265 µg/mL
"affinity-matured B7-H3 antibody 42F7 (antibody, V domains shown, Full antibody expressed in 293F cells, protein A purified; VH assembled from the framework and CDR entries) VH: QVQLVQSGAEVKKPGSSVKVSCKASGGTRPAALINWVRQAPGQGLEWMGGIIPLFGTANYAQKFQGRVTITADESTSTAYMELSSLRSDDTAVYYCARDQVVATSGVNFGMDVWGQGTTVTVSS VL: DIQMTQEPSLTTSPGGTVTLTCRSSTGAVTTSNYANWVQEKPGQAPRGLIGGTNKRAPGTPARFSGSLIGGKAALTITGVQPEDEAIYFCALWYSNLWVFGGGTKLEIK",–,0.0278 µg/mL
"affinity-matured B7-H3 antibody 44F2 (antibody, V domains shown, Full antibody expressed in 293F cells, protein A purified; VH assembled from the framework and CDR entries) VH: QVQLVQSGAEVKKPGSSVKVSCKASGGTFSNYAINWVRQAPGQGLEWMGGIIPGFYSLNYAQKFQGRVTITADESTSTAYMELSSLRSDDTAVYYCARDQVVATSGVNFGMDVWGQGTTVTVSS VL: DIQMTQEPSLTTSPGGTVTLTCRSSTGAVTTSNYANWVQEKPGQAPRGLIGGTNKRAPGTPARFSGSLIGGKAALTITGVQPEDEAIYFCALWYSNLWVFGGGTKLEIK",–,0.0464 µg/mL
"affinity-matured B7-H3 antibody 44C5 (antibody, V domains shown, Full antibody expressed in 293F cells, protein A purified; VH assembled from the framework and CDR entries) VH: QVQLVQSGAEVKKPGSSVKVSCKASGGTFSNYAINWVRQAPGQGLEWMGGIIPRFGGVNYAQKFQGRVTITADESTSTAYMELSSLRSDDTAVYYCARDQVVATSGVNFGMDVWGQGTTVTVSS VL: DIQMTQEPSLTTSPGGTVTLTCRSSTGAVTTSNYANWVQEKPGQAPRGLIGGTNKRAPGTPARFSGSLIGGKAALTITGVQPEDEAIYFCALWYSNLWVFGGGTKLEIK",–,0.0639 µg/mL
"Enoblituzumab (antibody, V domains shown) VH: EVQLVESGGGLVQPGGSLRLSCAASGFTFSSFGMHWVRQAPGKGLEWVAYISSDSSAIYYADTVKGRFTISRDNAKNSLYLQMNSLRDEDTAVYYCGRGRENIYYGSRLDYWGQGTTVTVSS VL: DIQLTQSPSFLSASVGDRVTITCKASQNVDTNVAWYQQKPGKAPKALIYSASYRYSGVPSRFSGSGSGTDFTLTISSLQPEDFATYYCQQYNNYPFTFGQGTKLEIKR",–,0.0255 µg/mL
